Source: patent publication US20210032299A1 (Eli Lilly, published 2021)
Starred links: 1 amine or outer side, 2 acyl side, 3 side chain; linkers in the order of their positions; H or OH if unused. Non-standard residues stand in square brackets, D forms with d. Groups on a side chain read outwards from the residue. No end group written: not given here. *: point of attachment. C20 diacid = O=C(O)CCCCCCCCCCCCCCCCCCC(=O)*; C18 diacid = O=C(O)CCCCCCCCCCCCCCCCC(=O)*; γGlu = O=C(O)[C@H](CCC(=O)[*:2])N[*:1]; αMeF = C[C@](N)(Cc1ccccc1)C(=O)O; 4Pal = N[C@@H](Cc1ccncc1)C(=O)O; αMeL = CC(C)C[C@](C)(N)C(=O)O; AEEA = NCCOCCOCC(=O)O; Aib = CC(C)(N)C(=O)O

T1: human glucose-dependent insulinotropic peptide receptor (human, UniProt P48546 22-466)
T1 sequence (looked up): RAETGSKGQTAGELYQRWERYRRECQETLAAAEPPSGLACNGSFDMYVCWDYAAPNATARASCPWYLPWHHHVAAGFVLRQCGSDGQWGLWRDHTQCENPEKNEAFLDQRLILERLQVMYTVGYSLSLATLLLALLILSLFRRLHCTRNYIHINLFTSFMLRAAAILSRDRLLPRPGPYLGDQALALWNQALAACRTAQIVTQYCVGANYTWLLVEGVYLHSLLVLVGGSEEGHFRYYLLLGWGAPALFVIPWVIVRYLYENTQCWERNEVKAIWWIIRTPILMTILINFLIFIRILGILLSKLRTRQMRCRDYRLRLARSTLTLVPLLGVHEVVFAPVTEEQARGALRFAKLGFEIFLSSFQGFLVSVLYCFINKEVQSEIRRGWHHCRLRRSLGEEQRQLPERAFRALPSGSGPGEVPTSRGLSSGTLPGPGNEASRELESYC

B1: Example 49 (peptide)
peptide: Y[Aib]EGTFISDYSI[αMeL]LDKK([AEEA-AEEA-γGlu-C18 diacid])HQ[Aib]DFVE[4Pal]LLAGGPSSGAPPPS-NH2
modifications: N-terminus assumed
SMILES: CC[C@H](C)[C@H](NC(=O)[C@H](Cc1ccccc1)NC(=O)[C@@H](NC(=O)CNC(=O)[C@H](CCC(=O)O)NC(=O)C(C)(C)NC(=O)[C@@H](N)Cc1ccc(O)cc1)[C@@H](C)O)C(=O)N[C@@H](CO)C(=O)N[C@@H](CC(=O)O)C(=O)N[C@@H](Cc1ccc(O)cc1)C(=O)N[C@@H](CO)C(=O)N[C@H](C(=O)N[C@@](C)(CC(C)C)C(=O)N[C@@H](CC(C)C)C(=O)N[C@@H](CC(=O)O)C(=O)N[C@@H](CCCCN)C(=O)N[C@@H](CCCCNC(=O)COCCOCCNC(=O)COCCOCCNC(=O)CC[C@H](NC(=O)CCCCCCCCCCCCCCCCC(=O)O)C(=O)O)C(=O)N[C@@H](Cc1c[nH]cn1)C(=O)N[C@@H](CCC(N)=O)C(=O)NC(C)(C)C(=O)N[C@@H](CC(=O)O)C(=O)N[C@@H](Cc1ccccc1)C(=O)N[C@H](C(=O)N[C@@H](CCC(=O)O)C(=O)N[C@@H](Cc1ccncc1)C(=O)N[C@@H](CC(C)C)C(=O)N[C@@H](CC(C)C)C(=O)N[C@@H](C)C(=O)NCC(=O)NCC(=O)N1CCC[C@H]1C(=O)N[C@@H](CO)C(=O)N[C@@H](CO)C(=O)NCC(=O)N[C@@H](C)C(=O)N1CCC[C@H]1C(=O)N1CCC[C@H]1C(=O)N1CCC[C@H]1C(=O)N[C@@H](CO)C(N)=O)C(C)C)[C@@H](C)CC
B2: Example 50 (peptide)
peptide: Y[Aib]EGT[αMeF]ISDYSI[αMeL]LDKK([AEEA-AEEA-γGlu-C20 diacid])HQ[Aib]DFVE[4Pal]LLAGGPSSGAPPPS-NH2
modifications: N-terminus assumed
SMILES: CC[C@H](C)[C@H](NC(=O)[C@H](CO)NC(=O)[C@H](Cc1ccc(O)cc1)NC(=O)[C@H](CC(=O)O)NC(=O)[C@H](CO)NC(=O)[C@@H](NC(=O)[C@](C)(Cc1ccccc1)NC(=O)[C@@H](NC(=O)CNC(=O)[C@H](CCC(=O)O)NC(=O)C(C)(C)NC(=O)[C@@H](N)Cc1ccc(O)cc1)[C@@H](C)O)[C@@H](C)CC)C(=O)N[C@@](C)(CC(C)C)C(=O)N[C@@H](CC(C)C)C(=O)N[C@@H](CC(=O)O)C(=O)N[C@@H](CCCCN)C(=O)N[C@@H](CCCCNC(=O)COCCOCCNC(=O)COCCOCCNC(=O)CC[C@H](NC(=O)CCCCCCCCCCCCCCCCCCC(=O)O)C(=O)O)C(=O)N[C@@H](Cc1c[nH]cn1)C(=O)N[C@@H](CCC(N)=O)C(=O)NC(C)(C)C(=O)N[C@@H](CC(=O)O)C(=O)N[C@@H](Cc1ccccc1)C(=O)N[C@H](C(=O)N[C@@H](CCC(=O)O)C(=O)N[C@@H](Cc1ccncc1)C(=O)N[C@@H](CC(C)C)C(=O)N[C@@H](CC(C)C)C(=O)N[C@@H](C)C(=O)NCC(=O)NCC(=O)N1CCC[C@H]1C(=O)N[C@@H](CO)C(=O)N[C@@H](CO)C(=O)NCC(=O)N[C@@H](C)C(=O)N1CCC[C@H]1C(=O)N1CCC[C@H]1C(=O)N1CCC[C@H]1C(=O)N[C@@H](CO)C(N)=O)C(C)C
B3: Example 46 (peptide)
peptide: Y[Aib]EGTFISDYSI[αMeL]LDKK([AEEA-AEEA-γGlu-C20 diacid])HQ[Aib]DFVE[4Pal]LLEQGPSSGAPPPS-NH2
modifications: N-terminus assumed
SMILES: CC[C@H](C)[C@H](NC(=O)[C@H](Cc1ccccc1)NC(=O)[C@@H](NC(=O)CNC(=O)[C@H](CCC(=O)O)NC(=O)C(C)(C)NC(=O)[C@@H](N)Cc1ccc(O)cc1)[C@@H](C)O)C(=O)N[C@@H](CO)C(=O)N[C@@H](CC(=O)O)C(=O)N[C@@H](Cc1ccc(O)cc1)C(=O)N[C@@H](CO)C(=O)N[C@H](C(=O)N[C@@](C)(CC(C)C)C(=O)N[C@@H](CC(C)C)C(=O)N[C@@H](CC(=O)O)C(=O)N[C@@H](CCCCN)C(=O)N[C@@H](CCCCNC(=O)COCCOCCNC(=O)COCCOCCNC(=O)CC[C@H](NC(=O)CCCCCCCCCCCCCCCCCCC(=O)O)C(=O)O)C(=O)N[C@@H](Cc1c[nH]cn1)C(=O)N[C@@H](CCC(N)=O)C(=O)NC(C)(C)C(=O)N[C@@H](CC(=O)O)C(=O)N[C@@H](Cc1ccccc1)C(=O)N[C@H](C(=O)N[C@@H](CCC(=O)O)C(=O)N[C@@H](Cc1ccncc1)C(=O)N[C@@H](CC(C)C)C(=O)N[C@@H](CC(C)C)C(=O)N[C@@H](CCC(=O)O)C(=O)N[C@@H](CCC(N)=O)C(=O)NCC(=O)N1CCC[C@H]1C(=O)N[C@@H](CO)C(=O)N[C@@H](CO)C(=O)NCC(=O)N[C@@H](C)C(=O)N1CCC[C@H]1C(=O)N1CCC[C@H]1C(=O)N1CCC[C@H]1C(=O)N[C@@H](CO)C(N)=O)C(C)C)[C@@H](C)CC
B4: Example 48 (peptide)
peptide: Y[Aib]EGTFISDYSI[αMeL]LDKK([AEEA-AEEA-γGlu-C20 diacid])HQ[Aib]DFVE[4Pal]LLAGGPSSGAPPPS-NH2
modifications: N-terminus assumed
SMILES: CC[C@H](C)[C@H](NC(=O)[C@H](Cc1ccccc1)NC(=O)[C@@H](NC(=O)CNC(=O)[C@H](CCC(=O)O)NC(=O)C(C)(C)NC(=O)[C@@H](N)Cc1ccc(O)cc1)[C@@H](C)O)C(=O)N[C@@H](CO)C(=O)N[C@@H](CC(=O)O)C(=O)N[C@@H](Cc1ccc(O)cc1)C(=O)N[C@@H](CO)C(=O)N[C@H](C(=O)N[C@@](C)(CC(C)C)C(=O)N[C@@H](CC(C)C)C(=O)N[C@@H](CC(=O)O)C(=O)N[C@@H](CCCCN)C(=O)N[C@@H](CCCCNC(=O)COCCOCCNC(=O)COCCOCCNC(=O)CC[C@H](NC(=O)CCCCCCCCCCCCCCCCCCC(=O)O)C(=O)O)C(=O)N[C@@H](Cc1c[nH]cn1)C(=O)N[C@@H](CCC(N)=O)C(=O)NC(C)(C)C(=O)N[C@@H](CC(=O)O)C(=O)N[C@@H](Cc1ccccc1)C(=O)N[C@H](C(=O)N[C@@H](CCC(=O)O)C(=O)N[C@@H](Cc1ccncc1)C(=O)N[C@@H](CC(C)C)C(=O)N[C@@H](CC(C)C)C(=O)N[C@@H](C)C(=O)NCC(=O)NCC(=O)N1CCC[C@H]1C(=O)N[C@@H](CO)C(=O)N[C@@H](CO)C(=O)NCC(=O)N[C@@H](C)C(=O)N1CCC[C@H]1C(=O)N1CCC[C@H]1C(=O)N1CCC[C@H]1C(=O)N[C@@H](CO)C(N)=O)C(C)C)[C@@H](C)CC
B5: Example 47 (peptide)
peptide: Y[Aib]EGTFISDYSI[αMeL]LDKK([AEEA-AEEA-γGlu-C20 diacid])HQ[Aib]DFVE[4Pal]LLEGGPSSGAPPPS-NH2
modifications: N-terminus assumed
SMILES: CC[C@H](C)[C@H](NC(=O)[C@H](Cc1ccccc1)NC(=O)[C@@H](NC(=O)CNC(=O)[C@H](CCC(=O)O)NC(=O)C(C)(C)NC(=O)[C@@H](N)Cc1ccc(O)cc1)[C@@H](C)O)C(=O)N[C@@H](CO)C(=O)N[C@@H](CC(=O)O)C(=O)N[C@@H](Cc1ccc(O)cc1)C(=O)N[C@@H](CO)C(=O)N[C@H](C(=O)N[C@@](C)(CC(C)C)C(=O)N[C@@H](CC(C)C)C(=O)N[C@@H](CC(=O)O)C(=O)N[C@@H](CCCCN)C(=O)N[C@@H](CCCCNC(=O)COCCOCCNC(=O)COCCOCCNC(=O)CC[C@H](NC(=O)CCCCCCCCCCCCCCCCCCC(=O)O)C(=O)O)C(=O)N[C@@H](Cc1c[nH]cn1)C(=O)N[C@@H](CCC(N)=O)C(=O)NC(C)(C)C(=O)N[C@@H](CC(=O)O)C(=O)N[C@@H](Cc1ccccc1)C(=O)N[C@H](C(=O)N[C@@H](CCC(=O)O)C(=O)N[C@@H](Cc1ccncc1)C(=O)N[C@@H](CC(C)C)C(=O)N[C@@H](CC(C)C)C(=O)N[C@@H](CCC(=O)O)C(=O)NCC(=O)NCC(=O)N1CCC[C@H]1C(=O)N[C@@H](CO)C(=O)N[C@@H](CO)C(=O)NCC(=O)N[C@@H](C)C(=O)N1CCC[C@H]1C(=O)N1CCC[C@H]1C(=O)N1CCC[C@H]1C(=O)N[C@@H](CO)C(N)=O)C(C)C)[C@@H](C)CC

Tests used:
Test in all cases: cell-based or functional assay
[1] = target: T1, human glucose-dependent insulinotropic …
human GLP-1 receptor = human GLP-1 receptor (human, UniProt P43220 24-463)
human glucagon receptor = human glucagon receptor (human, UniProt P47871 26-477)
Chain of human glucagon receptor (P47871 26-477): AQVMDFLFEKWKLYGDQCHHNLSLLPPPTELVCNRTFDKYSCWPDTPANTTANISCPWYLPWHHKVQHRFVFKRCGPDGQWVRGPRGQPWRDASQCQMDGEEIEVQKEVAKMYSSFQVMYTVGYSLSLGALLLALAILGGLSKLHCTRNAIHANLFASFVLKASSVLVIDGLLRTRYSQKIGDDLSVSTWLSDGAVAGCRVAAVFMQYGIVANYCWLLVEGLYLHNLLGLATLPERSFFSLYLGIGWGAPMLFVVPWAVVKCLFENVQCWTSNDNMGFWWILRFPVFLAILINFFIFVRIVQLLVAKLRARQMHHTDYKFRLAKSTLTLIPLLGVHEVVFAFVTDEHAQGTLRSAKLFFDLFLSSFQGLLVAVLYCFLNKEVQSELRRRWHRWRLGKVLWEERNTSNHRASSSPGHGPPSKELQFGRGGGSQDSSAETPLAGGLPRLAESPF

Binder | hGIPR cAMP Rel EC50 [1] | hGLP1R cAMP Rel EC50 (human GLP-1 receptor) | hGcgR cAMP Rel EC50 (human glucagon receptor)
B1 | 0.0156 nM | > 5000 nM | 2860 nM
B2 | 0.0212 nM | 41 nM | 371 nM
B3 | 0.0294 nM | > 5000 nM | 863 nM
B4 | 0.0166 nM | > 5000 nM | 1360 nM
B5 | 0.0234 nM | > 5000 nM | 757 nM
